Positions count from the first letter of the chain named.
Biological target: ETS1:RUNX1 (Homo sapiens, UniProt P14921;Q01196 full;full)
Test: gcPBM; 1 nM ETS1 + 25 nM RUNX1, anti-ETS1 signal, normalised
Conditions: tags: N-terminal GST (pDEST15), kept (PMC6008103); copies: 1;1; label: surface-attached array probe

B1: Table S2 A row 762 (dsDNA)
DNA 1: CAGAAAGAGGAAATGATGCGAGTCCACACCGCAGGC
DNA 2: GCCTGCGGTGTGGACTCGCATCATTTCCTCTTTCTG
With B1 the binding signal was 2620 PBM fluorescence, median of replicate spots.

B2: Table S2 A row 101 (dsDNA)
DNA 1: GAGGGACAGGATGCCGCCAGGAACCACAAGAGCTTC
DNA 2: GAAGCTCTTGTGGTTCCTGGCGGCATCCTGTCCCTC
For B2, the binding signal was 2530 PBM fluorescence, median of replicate spots.

B3: Table S2 A row 1529 (dsDNA)
DNA 1: GGTGCCTGGGGAGGATGTGGGCTGACTGGGAGGGGT
DNA 2: ACCCCTCCCAGTCAGCCCACATCCTCCCCAGGCACC
B3 was tested, and the binding signal was 1520 PBM fluorescence, median of replicate spots.

B4: Table S2 A row 769 (dsDNA)
DNA 1: CAAGCCAACATCCTGACAGTTTAGAAACCACAGGAG
DNA 2: CTCCTGTGGTTTCTAAACTGTCAGGATGTTGGCTTG
For B4, the binding signal was 1670 PBM fluorescence, median of replicate spots.

B5: Table S2 A row 1411 (dsDNA)
DNA 1: GAGGGGGAGGTTTCCGGGGCCTGTGGTTACTACACT
DNA 2: AGTGTAGTAACCACAGGCCCCGGAAACCTCCCCCTC
With B5 the binding signal was 1620 PBM fluorescence, median of replicate spots.

B6: Table S2 A row 276 (dsDNA)
DNA 1: CAGCTGACAGGAAGGAGAGAACCACAGACAGTGCGA
DNA 2: TCGCACTGTCTGTGGTTCTCTCCTTCCTGTCAGCTG
For B6, the binding signal was 2270 PBM fluorescence, median of replicate spots.

B7: Table S2 A row 127 (dsDNA)
DNA 1: CAAGCCAGGAAGAGGGCCCTCACCAGAAACCGCACT
DNA 2: AGTGCGGTTTCTGGTGAGGGCCCTCTTCCTGGCTTG
With B7 the binding signal was 1640 PBM fluorescence, median of replicate spots.

B8: Table S2 A row 195 (dsDNA)
DNA 1: GCTCCCGGATGTTCTGGGGATCTGCGGCCGCCTGGC
DNA 2: GCCAGGCGGCCGCAGATCCCCAGAACATCCGGGAGC
For B8, the binding signal was 2440 PBM fluorescence, median of replicate spots.

B9: Table S2 A row 1340 (dsDNA)
DNA 1: CATTTCAGTCCAGGATGTGGGTGCACACACCGCTTC
DNA 2: GAAGCGGTGTGTGCACCCACATCCTGGACTGAAATG
With B9 the binding signal was 2860 PBM fluorescence, median of replicate spots.

B10: Table S2 A row 224 (dsDNA)
DNA 1: GACCAATGTAAACAAGGATGTGGGTTCTCCGGGCAC
DNA 2: GTGCCCGGAGAACCCACATCCTTGTTTACATTGGTC
With B10 the binding signal was 2020 PBM fluorescence, median of replicate spots.

B11: Table S2 A row 1056 (dsDNA)
DNA 1: GGGTCTCCAGGAAGCCACTCACCACAAACTTTGACA
DNA 2: TGTCAAAGTTTGTGGTGAGTGGCTTCCTGGAGACCC
For B11, the binding signal was 1560 PBM fluorescence, median of replicate spots.

B12: Table S2 A row 328 (dsDNA)
DNA 1: AGTAGAGGAGGAAGTTAAATGTGGTTTTCTGGGTGG
DNA 2: CCACCCAGAAAACCACATTTAACTTCCTCCTCTACT
In the case of B12, the binding signal is reported as 2960 PBM fluorescence, median of replicate spots.

B13: Table S2 A row 315 (dsDNA)
DNA 1: GAAAAATGAAGTTTCCGCAGTAACCACAACACAGCC
DNA 2: GGCTGTGTTGTGGTTACTGCGGAAACTTCATTTTTC
B13 was tested, and the binding signal was 1900 PBM fluorescence, median of replicate spots.

B14: Table S2 A row 388 (dsDNA)
DNA 1: GCAGTTTCAAGAGGATGTGGTCTCTTTCACTGCCTG
DNA 2: CAGGCAGTGAAAGAGACCACATCCTCTTGAAACTGC
For B14, the binding signal was 1800 PBM fluorescence, median of replicate spots.

B15: Table S2 A row 83 (dsDNA)
DNA 1: GACAGACCTTAGGAAGTCGCGGTTTCATCAGGGCTT
DNA 2: AAGCCCTGATGAAACCGCGACTTCCTAAGGTCTGTC
For B15, the binding signal was 1710 PBM fluorescence, median of replicate spots.

B16: Table S2 A row 1754 (dsDNA)
DNA 1: AACAGTTGCATAGGAAGTGGTCAGCTCTCCTCCACC
DNA 2: GGTGGAGGAGAGCTGACCACTTCCTATGCAACTGTT
In the case of B16, the binding signal is reported as 2050 PBM fluorescence, median of replicate spots.

B17: Table S2 A row 1447 (dsDNA)
DNA 1: ACACCTCAGGAAGTGGCAGAGACCACAACAAGTCAG
DNA 2: CTGACTTGTTGTGGTCTCTGCCACTTCCTGAGGTGT
In the case of B17, the binding signal is reported as 2380 PBM fluorescence, median of replicate spots.

B18: Table S2 A row 342 (dsDNA)
DNA 1: B17 DNA 1 with T6C
DNA 2: B17 DNA 2 with A31G
For B18, the binding signal was 1810 PBM fluorescence, median of replicate spots.

B19: Table S2 A row 240 (dsDNA)
DNA 1: CAGGCTCGCCACAGGGGAAGTGGTTAGGGCGGGTCC
DNA 2: GGACCCGCCCTAACCACTTCCCCTGTGGCGAGCCTG
With B19 the binding signal was 2340 PBM fluorescence, median of replicate spots.

B20: Table S2 A row 294 (dsDNA)
DNA 1: GCAGGACTTCCTGTGTTGTGCTAACCTCAAATTACA
DNA 2: TGTAATTTGAGGTTAGCACAACACAGGAAGTCCTGC
With B20 the binding signal was 2660 PBM fluorescence, median of replicate spots.

B21: Table S2 A row 791 (dsDNA)
DNA 1: CGGCAGGCAAGCAGGAAACCGCGAGTGGAGAAAGGG
DNA 2: CCCTTTCTCCACTCGCGGTTTCCTGCTTGCCTGCCG
In the case of B21, the binding signal is reported as 2990 PBM fluorescence, median of replicate spots.

B22: Table S2 A row 1108 (dsDNA)
DNA 1: CATGGGGAGGAGGAAGTGGTGGCGGCCGCAGGCCAG
DNA 2: CTGGCCTGCGGCCGCCACCACTTCCTCCTCCCCATG
B22 was tested, and the binding signal was 2880 PBM fluorescence, median of replicate spots.

B23: Table S2 A row 1256 (dsDNA)
DNA 1: AGCCGTCATTCAGGATGTGGTGACAGACATGGAGAC
DNA 2: GTCTCCATGTCTGTCACCACATCCTGAATGACGGCT
B23 was tested, and the binding signal was 2490 PBM fluorescence, median of replicate spots.

B24: Table S2 A row 108 (dsDNA)
DNA 1: CACTTCCTGTCAAAGCCAGTTCCTTAACCGCTTAGG
DNA 2: CCTAAGCGGTTAAGGAACTGGCTTTGACAGGAAGTG
In the case of B24, the binding signal is reported as 2540 PBM fluorescence, median of replicate spots.

B25: Table S2 A row 308 (dsDNA)
DNA 1: GCCGCTGCCTCTTCCTGTGTGGTTTTTCAGGGCTTA
DNA 2: TAAGCCCTGAAAAACCACACAGGAAGAGGCAGCGGC
With B25 the binding signal was 1610 PBM fluorescence, median of replicate spots.

B26: Table S2 A row 1129 (dsDNA)
DNA 1: CACTTCCTCCTCGGGGGCCTCAGAAAACCACAGGGC
DNA 2: GCCCTGTGGTTTTCTGAGGCCCCCGAGGAGGAAGTG
With B26 the binding signal was 1580 PBM fluorescence, median of replicate spots.

B27: Table S2 A row 1201 (dsDNA)
DNA 1: GTTGAGTTCCGGGGGAGGTTGAGTTCCTGCGGTCAA
DNA 2: TTGACCGCAGGAACTCAACCTCCCCCGGAACTCAAC
With B27 the binding signal was 1630 PBM fluorescence, median of replicate spots.

B28: Table S2 A row 548 (dsDNA)
DNA 1: CTCTCACTTCCCGTGTGAGAAAAACCACAGAAAAGC
DNA 2: GCTTTTCTGTGGTTTTTCTCACACGGGAAGTGAGAG
With B28 the binding signal was 2080 PBM fluorescence, median of replicate spots.

B29: Table S2 A row 670 (dsDNA)
DNA 1: TGAGCACAGTATTTCCTGTGGTTTCTATTGCATTTC
DNA 2: GAAATGCAATAGAAACCACAGGAAATACTGTGCTCA
For B29, the binding signal was 1550 PBM fluorescence, median of replicate spots.

B30: Table S2 A row 979 (dsDNA)
DNA 1: GCGCGGCCCGGAAGGGGGTAACCGCTGAGTCTTTGA
DNA 2: TCAAAGACTCAGCGGTTACCCCCTTCCGGGCCGCGC
B30 was tested, and the binding signal was 1910 PBM fluorescence, median of replicate spots.

B31: Table S2 A row 988 (dsDNA)
DNA 1: TCATGCTGCTTCCTGCCCAACCCGCAGTTCCGATAA
DNA 2: TTATCGGAACTGCGGGTTGGGCAGGAAGCAGCATGA
For B31, the binding signal was 1730 PBM fluorescence, median of replicate spots.

B32: Table S2 A row 1415 (dsDNA)
DNA 1: AGGCTGTGTGAAGGATGTGGTCAGGCGGAGGCCAGG
DNA 2: CCTGGCCTCCGCCTGACCACATCCTTCACACAGCCT
In the case of B32, the binding signal is reported as 2710 PBM fluorescence, median of replicate spots.

B33: Table S2 A row 1075 (dsDNA)
DNA 1: GTTGCAGGAAACGATGGGTTTTGTGGTATGAACTGC
DNA 2: GCAGTTCATACCACAAAACCCATCGTTTCCTGCAAC
In the case of B33, the binding signal is reported as 2140 PBM fluorescence, median of replicate spots.

B34: Table S2 A row 149 (dsDNA)
DNA 1: TTCAACAGGATATTGCTTTGTTACCACAGGCCCTTT
DNA 2: AAAGGGCCTGTGGTAACAAAGCAATATCCTGTTGAA
For B34, the binding signal was 3020 PBM fluorescence, median of replicate spots.

B35: Table S2 A row 1175 (dsDNA)
DNA 1: TTGCTCCCGGAAGCCCCGCCCGACCGCGGCTCCTGA
DNA 2: TCAGGAGCCGCGGTCGGGCGGGGCTTCCGGGAGCAA
B35 was tested, and the binding signal was 1960 PBM fluorescence, median of replicate spots.

B36: Table S2 A row 464 (dsDNA)
DNA 1: AGCGACAGCGGATGCTCTCTGGCCGCAACATTCTTT
DNA 2: AAAGAATGTTGCGGCCAGAGAGCATCCGCTGTCGCT
B36 was tested, and the binding signal was 2940 PBM fluorescence, median of replicate spots.

B37: Table S2 A row 692 (dsDNA)
DNA 1: TGCGAGGTTGCCAGGAAACCGCGAAGCCGAGGTCCC
DNA 2: GGGACCTCGGCTTCGCGGTTTCCTGGCAACCTCGCA
In the case of B37, the binding signal is reported as 2180 PBM fluorescence, median of replicate spots.

B38: Table S2 A row 843 (dsDNA)
DNA 1: CCTTGCTACAGGATGTTTTGACCACGAGCCCAGGAG
DNA 2: CTCCTGGGCTCGTGGTCAAAACATCCTGTAGCAAGG
With B38 the binding signal was 2240 PBM fluorescence, median of replicate spots.

B39: Table S2 A row 1482 (dsDNA)
DNA 1: CCATCCAGGAAGCTTATGGTGCAACCGCAGTGTGCC
DNA 2: GGCACACTGCGGTTGCACCATAAGCTTCCTGGATGG
For B39, the binding signal was 2210 PBM fluorescence, median of replicate spots.

B40: Table S2 A row 1686 (dsDNA)
DNA 1: TGAGCCTTGGAAGGAAATGATTCACCACAATACTGT
DNA 2: ACAGTATTGTGGTGAATCATTTCCTTCCAAGGCTCA
With B40 the binding signal was 2590 PBM fluorescence, median of replicate spots.

B41: Table S2 A row 789 (dsDNA)
DNA 1: TCCCACTGCGACGGAAGCACAGCGGTTAAGATTGCA
DNA 2: TGCAATCTTAACCGCTGTGCTTCCGTCGCAGTGGGA
With B41 the binding signal was 2460 PBM fluorescence, median of replicate spots.

B42: Table S2 A row 340 (dsDNA)
DNA 1: CAGAGCAGAGAGGAAGTGGTGGTGGCCACAGTCCCA
DNA 2: TGGGACTGTGGCCACCACCACTTCCTCTCTGCTCTG
For B42, the binding signal was 2770 PBM fluorescence, median of replicate spots.

B43: Table S2 A row 37 (dsDNA)
DNA 1: AGAATCGCATCAGGATGTGGTGAGGGAGCACATTTG
DNA 2: CAAATGTGCTCCCTCACCACATCCTGATGCGATTCT
B43 was tested, and the binding signal was 2110 PBM fluorescence, median of replicate spots.

B44: Table S2 A row 337 (dsDNA)
DNA 1: ATAGTCTCTTCCTGTGTTGCAAACCACAGGTCCACC
DNA 2: GGTGGACCTGTGGTTTGCAACACAGGAAGAGACTAT
In the case of B44, the binding signal is reported as 1690 PBM fluorescence, median of replicate spots.
